Measured values taken from patent US7514534.

B1: D07 (antibody, human IgG4, V domains shown)
VH: EVQLLESGGGLVQPGGSLRLSCAASGFTFSEYNMFWVRQAPGKGLEWVSYIYSSGGSTDYADSVKGRFTISRDNSKNTLYLQMNSLRAEDTAVYYCARVGIAARPFDPWGQGTLVTVSS
VL: QSELTQPASVSGSPGQSITISCTGTNSDIGGYNYVSWYQQHPGKVPKLLIFEVNNRPSGVSSRFSGSKSGDTASLTISGLQPEDEAVYYCGSFTVSVTYVFGTGTKVTVLG
B2: C11 (antibody, human IgG4, V domains shown)
VH: EVQLLESGGGLVQPGGSLRLSCAASGFTFSEYPMWWVRQAPGKGLEWVSWIYPSGGNTDYADSVKGRFTISRDNSKNTLYLQMNSLRAEDTAVYYCAIPYCSSSSCPLHWGQGTLVTVSS
VL: QSELTQPPSASGSPGQSVTISCTGTSSDVGGYNYVSWYQQHPDKAPKLLIYEVTQRPSGVPDRFSGSRSGNTASLTVSGLQAEDEADYYCSSYAGRNNLYVFGPGTKVTVLG
B3: C05 (antibody, human IgG4, V domains shown)
VH: EVQLLESGGGLVQPGGSLRLSCAASGFTFSSYQMDWVRQAPGKGLEWVSRIVPSGGDTTYADSVKGRFTISRDNSKNTLYLQMNSLRAEDTAVYYCARHVYYDSSDYFPNPFDYWGQGTLVTVSS
VL: QSELTQPPSVSGTPGQRVTISCSGSSSNIGSEYVYWFQQLPGTAPRLLIYRNDQRPSGVPDRFSGSKSGTSASLAISGLRSEDETDYYCTTWDDSLSGPVFGGGTKLTVLG
B4: D06 (antibody, human IgG4, V domains shown)
VH: EVQLLESGGGLVQPGGSLRLSCAASGFTFSGYIMEWVRQAPGKGLEWVSVIVSSGGFTMYADSVKGRFTISRDNSKNTLYLQMNSLRAEDTAVYYCARVGDSKGGYYLDYWGQGTLVTVSS
VL: DIQMTQSPSSLSASVGDRVTITCRTSQIINTYLNWYQQKPGKAPKLLIYAASTLQGGVPSRFSGSGSGTDFTLTIKSLQPDDFATYYCQQSYTSPRTFGQGTKVEIKR
B5: C08 (antibody, human IgG4, V domains shown)
VH: EVQLLESGGGLVQPGGSLRLSCAASGFTFSYYEMMWVRQAPGKGLEWVSSISPSGGPTMYADSVKGRFTISRDNSKNTLYLQMNSLRAEDTGVYYCARKMGRVGYCSSTSCYRDDYYGMDVWGQGTTVTVSS
VL: DIQMTQSPPSLSALVGDRVTITCRASQSISRYVNWYQQKPGKAPKVLIYAASIVENGVPSRFSGSGSGTDFSLTISSLQPEDFATYYCQQTYSTPLTFGGGTKLAIKR
B6: C12 (antibody, V domains shown)
VH: EVQLLESGGGLVQPGGSLRLSCAASGFTFSAYNMMWVRQAPGKGLEWVSRIYPSGGYTLYADSVKGRFTISRDNSKNTLYLQMNSLRAEDTAVYYCARQKLMIRAVRPFDYWGQGTLVTVSS
VL: QSELTQPPSVSVSPAQTASITCSGDKLGDKYACWYQQKPGQSPVLVIYEDTKRPSGIPERFSGSNSGNTATLTISGTQVMDEADYYCQVWDSSTAVFGGGTKLTVLG
B7: D08 (antibody, human IgG4, V domains shown)
VH: EVQLLESGGGLVQPGGSLRLSCAASGFTFSFYAMWWVRQAPGKGLEWVSRIYSSGGKTWYADSVKGRFTISRDNSKNTLYLQMNSLRAEDTAVYYCARVGMSTYAFDIWGQGTMVTVSS
VL: DIQMTQSPSSLSASVGDRVTITCRASQSISDYLNWYQQKPGKAPDLLIYAASSLQSGVPSRFSGSGSGTDFTLTVSSLQPEDFATYFCQQSYSIPLTFGGGTKVEITR
B8: D04 (antibody, human IgG4, V domains shown)
VH: EVQLLESGGGLVQPGGSLRLSCAASGFTFSDYQMMWVRQAPGKGLEWVSRISPSGGMTRYADSVKGRFTISRDNSKNTLYLPMNSLRAEDTAVYYCARSGPYYFDYWGQGTLVTVSS
VL: DIQMTQSPSSLSASVGDRVAITCRASQSIDTYLNWYQQKPGKAPKLLIYAASKLEDGVPSRFSGSGTGTDFTLTIRSLQPEDFASYFCQQSYSSPGITFGPGTKVEIKR
B9: D02 (antibody, human IgG4, V domains shown)
VH: EVQLLESGGGLVQPGGSLRLSCAASGFTFSWYDMAWVRQAPGKGLEWVSRIVPSGGHTSYADSVKGRFTISRDNFKNTLYLQMNSLRAEDTAVYYCARRASRPEFFDYWGQGALVTVSS
VL: DIQMTQSPSFLSASVGDRVTITCRASQGISTYLAWYQQKPGKAPKVLIYTASTLQSGVPSRFSGSGSGTEFTLTISSLQPEDFATYYCQQSYITPPEVTFGPGTKVDIKR

Each binder was assayed against T1, MMP-26 (human) (assay: cell-based or functional assay).
T1 sequence: ASDF

Question: With B1 as the binder, how does the % Inhibition of JEG-3 cell invasion, 5 µg/ml (first test) read?
Answer: 21%

Question: And the % Inhibition of JEG-3 cell invasion, 25 µg/ml (first test)?
Answer: 36%

Question: B2 was tested. Which % Inhibition of JEG-3 cell invasion, 5 µg/ml (first test) did it give?
Answer: 28%

Question: And the % Inhibition of JEG-3 cell invasion, 25 µg/ml (first test)?
Answer: 29%

Question: B3 was tested. Which % Inhibition of JEG-3 cell invasion, 5 µg/ml (first test) did it give?
Answer: 16%

Question: And the % Inhibition of JEG-3 cell invasion, 25 µg/ml (first test)?
Answer: 32%

Question: Which results are given for B4?
Answer: % Inhibition of JEG-3 cell invasion, 5 µg/ml (first test): 0%; % Inhibition of JEG-3 cell invasion, 25 µg/ml (first test): 35%

Question: Which results are given for B5?
Answer: % Inhibition of JEG-3 cell invasion, 1 µg/ml (further test): 34%; % Inhibition of JEG-3 cell invasion, 5 µg/ml (first test): 45%; % Inhibition of JEG-3 cell invasion, 5 µg/ml (further test): 42%; % Inhibition of JEG-3 cell invasion, 25 µg/ml (first test): 49%; % Inhibition of JEG-3 cell invasion, 25 µg/ml (further test): 49%; % Inhibition of JEG-3 cell invasion, 50 µg/ml (further test): 62%

Question: B6 was tested. Which % Inhibition of JEG-3 cell invasion, 1 µg/ml (further test) did it give?
Answer: 36%

Question: And the % Inhibition of JEG-3 cell invasion, 5 µg/ml (first test)?
Answer: 49%

Question: And the % Inhibition of JEG-3 cell invasion, 5 µg/ml (further test)?
Answer: 35%

Question: What about the % Inhibition of JEG-3 cell invasion, 25 µg/ml (first test) of the same binder?
Answer: 38%

Question: And the % Inhibition of JEG-3 cell invasion, 25 µg/ml (further test)?
Answer: 49%

Question: What about the % Inhibition of JEG-3 cell invasion, 50 µg/ml (further test) of the same binder?
Answer: 27%

Question: What does the source list for B7?
Answer: % Inhibition of JEG-3 cell invasion, 1 µg/ml (further test): 56%; % Inhibition of JEG-3 cell invasion, 5 µg/ml (first test): 36%; % Inhibition of JEG-3 cell invasion, 5 µg/ml (further test): 50%; % Inhibition of JEG-3 cell invasion, 25 µg/ml (first test): 35%; % Inhibition of JEG-3 cell invasion, 25 µg/ml (further test): 76%; % Inhibition of JEG-3 cell invasion, 50 µg/ml (further test): 53%

Question: How did the % Inhibition of JEG-3 cell invasion, 1 µg/ml (further test) turn out when B8 was run?
Answer: 47%

Question: What about the % Inhibition of JEG-3 cell invasion, 5 µg/ml (first test) of the same binder?
Answer: 38%

Question: What about the % Inhibition of JEG-3 cell invasion, 5 µg/ml (further test) of the same binder?
Answer: 34%

Question: And the % Inhibition of JEG-3 cell invasion, 25 µg/ml (first test)?
Answer: 34%

Question: And the % Inhibition of JEG-3 cell invasion, 25 µg/ml (further test)?
Answer: 45%

Question: What about the % Inhibition of JEG-3 cell invasion, 50 µg/ml (further test) of the same binder?
Answer: 52%

Question: B9 was tested. Which % Inhibition of JEG-3 cell invasion, 5 µg/ml (first test) did it give?
Answer: 36%

Question: What about the % Inhibition of JEG-3 cell invasion, 25 µg/ml (first test) of the same binder?
Answer: 25%
